# Measurements from paper doi:10.1101/2024.07.25.605195 (bioRxiv, 2024).
# “And” between values parts separate entries of the source, which are not always exact repeats. Equal entries are not always repeated.
# Biological target: the molecule itself
# Assay: cryo-EM structure
protein,measurement,value
"mouse seipin, recombinant, purified from Expi293 cells co-expressing Adig (natural protein, UniProt Q9Z2E9 1-383, looked up) MVNDPPVPALLWAQEVGHVLAGRARRLMLQFGVLFCTILLLLWVSVFLYGSFYYSYMPTVSHLSPVHFHYRTDCDSSTASLCSFPVANVSLAKSGRDRVLMYGQPYRVTLELELPESPVNQDLGMFLVTVSCYTRGGRIISTSSRSVMLHYRSQLLQVLDTLLFSSLLLFGFAEQKQLLEVELYSDYRENSYVPTTGAIIEIHSKRIQMYGAYLRIHAHFTGLRYLLYNFPMTCAFVGVASNFTFLSVIVLFSYMQWVWGAVWPRHRFSLQVNIRQRDNSHHGAPRRISRHQPGQESTQQSDVTEDGESPEDPSGTEGQLSEEEKPEKRPLNGEEEQEPEASDGSWEDAALLTEANPPTSASASALAPETLGSLRQRPTCSSS",stoichiometry N,11 and 12
